The target in experiment [1] is T1, human FcγRI (His-tagged, soluble, captured for SPR) (human, UniProt P12314 16-292, limits assumed).
T1 construct: His-tagged human FcγR expressed in CHO cells, purified in house and captured by an anti-His antibody on a CM5 chip; also called CD64; not shown: His tag
The experiment can be described thus: SPR, His-tagged FcγR captured by anti-His antibody, antibody injected. The procedure: (§1) Surface plasmon resonance experiments were performed using the SPR T-200 instrument. His-tagged human FcγRs were expressed in CHO cells and purified in house mouse anti-his capture antibody was immobilized at approximately 5000 RU on a Series S Sensor Chip CM5 (GE Healthcare) using Instrument Buffer (0.005% P20 in PBS). FcγRs were diluted to 3.3˜10 nM in running buffer (0.005% P20, 0.1 mg/mL BSA in PBS) and injected at 10 μL/min for 1.5 min for the capture step. Panitumumab samples were diluted in running buffer (PBS+0.005% P20+0.1 mg/mL BSA) over a range of concentrations from 0.4 nM-20000 nM and injected over the captured FcγR with association and dissociation times of 3 minutes at 50 μL/min. The chip surface was regenerated by injecting 10 mM glycine, pH 1.7 at 30 μL/min for 30 s.
Background: In SPR one partner is held on a chip, and binding of the other changes the refractive index at the surface.

Experiment [2] deals with T2, huFcγRIIa-131H (His-tagged, soluble, captured for SPR) (human, UniProt P12318 34-217, limits assumed).
T2 construct: His-tagged human FcγR expressed in CHO cells, purified in house and captured by an anti-His antibody on a CM5 chip; also called FcγRIIa-H131; not shown: His tag
T2 sequence (looked up): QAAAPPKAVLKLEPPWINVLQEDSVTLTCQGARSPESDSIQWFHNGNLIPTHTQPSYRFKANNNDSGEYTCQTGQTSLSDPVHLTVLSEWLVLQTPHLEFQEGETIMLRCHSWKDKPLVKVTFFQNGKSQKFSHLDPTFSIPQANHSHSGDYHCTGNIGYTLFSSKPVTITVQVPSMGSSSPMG
Kind of experiment: SPR, His-tagged FcγR captured by anti-His antibody, antibody injected; unenriched panitumumab; apparent KD. Here is the method: as §1

Experiment [3] deals with T2, huFcγRIIa-131H (His-tagged, soluble, …). The experiment can be described thus: SPR equilibrium binding, His-tagged FcγR captured by anti-His antibody; afucose enriched; equilibrium binding. Here is the method:
as §1
(§2) To try to assess the affinity of panitumumab and the various enriched glycan species for FcγRs, we measured the biding of panitumumab samples to all three human Fcγ Receptors by surface plasmon resonance (SPR). […] The binding was further assessed for the fucose and afucose enriched panitumumab samples by equilibrium binding (FIGS. 11A-11B). […]

Experiment [4] has the same target. Kind of experiment: SPR equilibrium binding, His-tagged FcγR captured by anti-His antibody; fucose enriched; equilibrium binding. Here is the method:
as §1, §2

For 3 molecules, binding result and Kd results are on record in patent US20220177580A1 (Amgen, published 2022).

T1 sequence (P12314 16-292 limits assumed): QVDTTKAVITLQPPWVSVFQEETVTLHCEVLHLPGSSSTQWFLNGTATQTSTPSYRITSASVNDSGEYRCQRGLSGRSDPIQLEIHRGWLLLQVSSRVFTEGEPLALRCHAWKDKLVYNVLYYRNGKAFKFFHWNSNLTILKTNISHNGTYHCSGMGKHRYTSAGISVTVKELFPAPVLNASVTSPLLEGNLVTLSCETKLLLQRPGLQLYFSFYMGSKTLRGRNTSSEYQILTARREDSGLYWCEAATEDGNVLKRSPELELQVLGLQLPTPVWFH

B1: Panitumumab (antibody, human IgG2, kappa)
heavy: QVQLQESGPGLVKPSETLSLTCTVSGGSVSSGDYYWTWIRQSPGKGLEWIGHIYYSGNTNYNPSLKSRLTISIDTSKTQFSLKLSSVTAADTAIYYCVRDRVTGAFDIWGQGTMVTVSSASTKGPSVFPLAPCSRSTSESTAALGCLVKDYFPEPVTVSWNSGALTSGVHTFPAVLQSSGLYSLSSVVTVPSSNFGTQTYTCNVDHKPSNTKVDKTVERKCCVECPPCPAPPVAGPSVFLFPPKPKDTLMISRTPEVTCVVVDVSHEDPEVQFNWYVDGVEVHNAKTKPREEQFNSTFRVVSVLTVVHQDWLNGKEYKCKVSNKGLPAPIEKTISKTKGQPREPQVYTLPPSREEMTKNQVSLTCLVKGFYPSDIAVEWESNGQPENNYKTTPPMLDSDGSFFLYSKLTVDKSRWQQGNVFSCSVMHEALHNHYTQKSLSLSPGK
light: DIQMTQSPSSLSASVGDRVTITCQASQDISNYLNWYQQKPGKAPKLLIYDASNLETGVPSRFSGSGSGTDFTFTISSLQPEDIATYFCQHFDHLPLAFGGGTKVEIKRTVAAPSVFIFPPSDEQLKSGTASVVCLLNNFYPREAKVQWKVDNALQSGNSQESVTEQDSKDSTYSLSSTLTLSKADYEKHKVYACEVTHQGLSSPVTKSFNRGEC
modifications: N-linked glycan at N-297 (Kabat EU numbering; residue 295 of SEQ ID NO:1)
notes: Human IgG2 anti-EGFR monoclonal antibody produced in CHO cells at Amgen; unfractionated glycan profile; also called Vectibix; IgG2 (Panitumumab)
For B1, the binding result in experiment [1] was “no binding (tested: 10 µM)”. For the same molecule, in experiment [2], the Kd was around 20 µM.

B2: afucose enriched panitumumab (antibody, human IgG2, kappa)
heavy: QVQLQESGPGLVKPSETLSLTCTVSGGSVSSGDYYWTWIRQSPGKGLEWIGHIYYSGNTNYNPSLKSRLTISIDTSKTQFSLKLSSVTAADTAIYYCVRDRVTGAFDIWGQGTMVTVSSASTKGPSVFPLAPCSRSTSESTAALGCLVKDYFPEPVTVSWNSGALTSGVHTFPAVLQSSGLYSLSSVVTVPSSNFGTQTYTCNVDHKPSNTKVDKTVERKCCVECPPCPAPPVAGPSVFLFPPKPKDTLMISRTPEVTCVVVDVSHEDPEVQFNWYVDGVEVHNAKTKPREEQFNSTFRVVSVLTVVHQDWLNGKEYKCKVSNKGLPAPIEKTISKTKGQPREPQVYTLPPSREEMTKNQVSLTCLVKGFYPSDIAVEWESNGQPENNYKTTPPMLDSDGSFFLYSKLTVDKSRWQQGNVFSCSVMHEALHNHYTQKSLSLSPGK
light: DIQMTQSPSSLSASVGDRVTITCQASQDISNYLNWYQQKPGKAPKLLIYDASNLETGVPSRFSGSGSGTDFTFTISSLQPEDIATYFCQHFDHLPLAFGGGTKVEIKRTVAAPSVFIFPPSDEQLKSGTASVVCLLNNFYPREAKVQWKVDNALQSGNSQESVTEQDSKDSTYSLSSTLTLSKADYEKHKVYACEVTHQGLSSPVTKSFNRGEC
modifications: N-297 glycan (residue 295 of SEQ ID NO:1) enriched for afucosylated species (Endo-H treatment, eluate of FcγIIIa affinity column; terminal galactose removed with β-(1-4)-galactosidase)
notes: also called afucosylated panitumumab; afucose enriched (eluate) mAb
In experiment [3], B2 registered a Kd of around 8 µM.

B3: fucose enriched panitumumab (antibody, human IgG2, kappa)
heavy: QVQLQESGPGLVKPSETLSLTCTVSGGSVSSGDYYWTWIRQSPGKGLEWIGHIYYSGNTNYNPSLKSRLTISIDTSKTQFSLKLSSVTAADTAIYYCVRDRVTGAFDIWGQGTMVTVSSASTKGPSVFPLAPCSRSTSESTAALGCLVKDYFPEPVTVSWNSGALTSGVHTFPAVLQSSGLYSLSSVVTVPSSNFGTQTYTCNVDHKPSNTKVDKTVERKCCVECPPCPAPPVAGPSVFLFPPKPKDTLMISRTPEVTCVVVDVSHEDPEVQFNWYVDGVEVHNAKTKPREEQFNSTFRVVSVLTVVHQDWLNGKEYKCKVSNKGLPAPIEKTISKTKGQPREPQVYTLPPSREEMTKNQVSLTCLVKGFYPSDIAVEWESNGQPENNYKTTPPMLDSDGSFFLYSKLTVDKSRWQQGNVFSCSVMHEALHNHYTQKSLSLSPGK
light: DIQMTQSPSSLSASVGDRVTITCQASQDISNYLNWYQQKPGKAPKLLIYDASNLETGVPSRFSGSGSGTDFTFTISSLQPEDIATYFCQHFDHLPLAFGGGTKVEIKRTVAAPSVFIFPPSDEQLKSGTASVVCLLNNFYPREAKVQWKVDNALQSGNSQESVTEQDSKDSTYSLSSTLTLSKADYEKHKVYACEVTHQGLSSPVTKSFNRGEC
modifications: N-297 glycan (residue 295 of SEQ ID NO:1) enriched for fucosylated species (flow-through of FcγIIIa affinity column; terminal galactose removed with β-(1-4)-galactosidase)
notes: also called fucosylated panitumumab; afucose-depleted (flow-through) mAb
With B3, in experiment [4], the Kd is around 7.9 µM.
